Data from US12467929.

What was measured:
[1] = target: recombinant UBE3A protein (Homo sapiens (Human)) (UniProt Q05086); assay: Simoa; capture GTX; 3E5 0.1 ug/ml; UBE3A 0.800 ng/ml
[2] = target: recombinant UBE3A protein (Homo sapiens (Human)) (UniProt Q05086); assay: Simoa; capture GTX; 3E5 0.1 ug/ml; UBE3A 0.00128 ng/ml
[3] = target: recombinant UBE3A protein (Homo sapiens (Human)) (UniProt Q05086); assay: Simoa head-to-head, Table 10; capture MS 2F6; UBE3A 100 ng/ml
[4] = target: recombinant UBE3A protein (Homo sapiens (Human)) (UniProt Q05086); assay: Simoa; capture GTX + helper beads; 3E5 0.4 ug/ml; UBE3A 0.800 ng/ml
[5] = target: recombinant UBE3A protein (Homo sapiens (Human)) (UniProt Q05086); assay: Simoa; capture GTX + helper beads; 3E5 0.1 ug/ml; UBE3A 0.00128 ng/ml
[6] = target: recombinant UBE3A protein (Homo sapiens (Human)) (UniProt Q05086); assay: Simoa; capture GTX, no helper beads; 3E5 0.2 ug/ml; UBE3A 0.800 ng/ml
[7] = target: recombinant UBE3A protein (Homo sapiens (Human)) (UniProt Q05086); assay: Simoa; capture GTX, no helper beads; 3E5 0.2 ug/ml; UBE3A 0.00640 ng/ml
[8] = target: recombinant UBE3A protein (Homo sapiens (Human)) (UniProt Q05086); assay: Simoa; capture GTX, no helper beads; 3E5 0.4 ug/ml; UBE3A 0.00640 ng/ml

Sequence of UniProt Q05086 (Q05086 whole entry): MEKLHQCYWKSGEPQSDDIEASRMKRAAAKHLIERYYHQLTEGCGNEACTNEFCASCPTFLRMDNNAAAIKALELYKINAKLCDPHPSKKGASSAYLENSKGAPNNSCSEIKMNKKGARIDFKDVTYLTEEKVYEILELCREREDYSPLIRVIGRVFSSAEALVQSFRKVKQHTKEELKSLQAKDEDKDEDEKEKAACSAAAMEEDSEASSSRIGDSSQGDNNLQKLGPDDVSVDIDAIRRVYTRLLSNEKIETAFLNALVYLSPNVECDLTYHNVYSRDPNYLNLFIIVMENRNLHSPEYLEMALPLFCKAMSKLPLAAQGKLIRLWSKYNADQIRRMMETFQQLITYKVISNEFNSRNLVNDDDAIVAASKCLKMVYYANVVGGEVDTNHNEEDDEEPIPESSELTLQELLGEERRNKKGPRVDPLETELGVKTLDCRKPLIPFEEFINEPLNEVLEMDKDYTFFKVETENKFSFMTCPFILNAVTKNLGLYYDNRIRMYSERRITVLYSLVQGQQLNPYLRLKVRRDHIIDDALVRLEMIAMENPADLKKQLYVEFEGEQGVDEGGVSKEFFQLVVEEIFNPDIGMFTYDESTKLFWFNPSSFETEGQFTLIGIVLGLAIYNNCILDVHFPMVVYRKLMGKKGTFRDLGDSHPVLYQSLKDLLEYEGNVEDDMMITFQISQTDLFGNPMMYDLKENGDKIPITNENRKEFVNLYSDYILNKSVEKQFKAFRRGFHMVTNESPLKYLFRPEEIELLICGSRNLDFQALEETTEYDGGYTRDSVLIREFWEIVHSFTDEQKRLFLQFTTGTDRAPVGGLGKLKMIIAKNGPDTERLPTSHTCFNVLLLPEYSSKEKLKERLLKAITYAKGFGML

- AEB1 [1]: 0.257
- AEB2 [1]: 0.27
- AEB3 [1]: 0.245
- Average AEB [1]: 0.257
- Signal to Background [1]: 13.3
- AEB1 [2]: 0.0242
- AEB2 [2]: 0.0239
- AEB3 [2]: 0.0247
- Average AEB [2]: 0.0243
- Signal to Background [2]: 1.26
- AEB1 [3]: 2.71
- AEB2 [3]: 2.88
- Ave AEB [3]: 2.8
- Signal to Background [3]: 207
- AEB1 [4]: 0.341
- AEB2 [4]: 0.333
- Average AEB [4]: 0.337
- Signal to Background [4]: 17.2
- AEB1 [5]: 0.0065
- AEB2 [5]: 0.0083
- Average AEB [5]: 0.0074
- Signal to Background [5]: 1.29
- AEB1 [6]: 0.25
- AEB2 [6]: 0.247
- Average AEB [6]: 0.249
- Signal to Background [6]: 25.7
- AEB2 [7]: 0.012
- Average AEB [7]: 0.012
- Signal to Background [7]: 1.24
- AEB1 [8]: 0.0228
- AEB2 [8]: 0.0232
- Average AEB [8]: 0.023
- Signal to Background [8]: 1.18
Substance: anti-UBE3A antibody 3E5 (SAB1404508-100 ug, Millipore-Sigma)
